Data: FireProtDB (doi:10.1021/bi00014a029)

Conditions: Meleagris gallopavo, Thermal, Potassium phosphate/Potassium acetate 10 mM/10 mM/
[1] = pH 1.5, CD, reversible: yes (82%)
[2] = pH 1.99, DSC, reversible: yes (91%)
[3] = pH 2.1, CD, reversible: yes (89%)
[4] = pH 2.5, CD, reversible: yes (85%)
[5] = pH 2.52, DSC, reversible: yes (90%)
[6] = pH 2.56, DSC, reversible: yes (78%)
[7] = pH 3.46, DSC, reversible: yes (90%)
[8] = pH 3.48, DSC, reversible: yes (81%)
[9] = pH 3.94, DSC, reversible: yes (87%)
[10] = pH 4.51, DSC, reversible: yes (84%)
[11] = pH 4.96, DSC, reversible: yes (100%)

Ovomucoid wild type, P68390, sequence (P68390 whole entry): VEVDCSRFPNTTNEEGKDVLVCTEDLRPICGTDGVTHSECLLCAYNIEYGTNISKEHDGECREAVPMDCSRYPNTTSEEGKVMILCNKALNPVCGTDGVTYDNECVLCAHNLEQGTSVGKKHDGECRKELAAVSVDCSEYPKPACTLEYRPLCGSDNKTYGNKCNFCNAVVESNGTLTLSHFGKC

Ovomucoid wild type, P68390
Tm [1]: 60.5 °C | unfolding enthalpy (van 't Hoff) [1]: 40.9 kcal/mol | Tm [2]: 63.1 °C | unfolding enthalpy (calorimetric) [2]: 44.2 kcal/mol | unfolding enthalpy (van 't Hoff) [2]: 44.6 kcal/mol | Tm [3]: 62.7 °C | unfolding enthalpy (van 't Hoff) [3]: 42.8 kcal/mol | Tm [4]: 66.2 °C | unfolding enthalpy (van 't Hoff) [4]: 43.7 kcal/mol | Tm [5]: 68.5 °C | unfolding enthalpy (calorimetric) [5]: 47.7 kcal/mol | unfolding enthalpy (van 't Hoff) [5]: 49.2 kcal/mol | Tm [6]: 65.7 °C | unfolding enthalpy (calorimetric) [6]: 45.4 kcal/mol | unfolding enthalpy (van 't Hoff) [6]: 45.4 kcal/mol | Tm [7]: 78.7 °C | unfolding enthalpy (calorimetric) [7]: 48.1 kcal/mol | unfolding enthalpy (van 't Hoff) [7]: 49.6 kcal/mol | Tm [8]: 78.7 °C | unfolding enthalpy (calorimetric) [8]: 50 kcal/mol | unfolding enthalpy (van 't Hoff) [8]: 51 kcal/mol | Tm (pH 3.51, DSC): 80.8 °C | unfolding enthalpy (calorimetric) (pH 3.51, DSC): 55 kcal/mol | unfolding enthalpy (van 't Hoff) (pH 3.51, DSC): 57.9 kcal/mol | Tm [9]: 85.7 °C | unfolding enthalpy (calorimetric) [9]: 55.3 kcal/mol | unfolding enthalpy (van 't Hoff) [9]: 52.7 kcal/mol | Tm [10]: 85.2 °C | unfolding enthalpy (calorimetric) [10]: 57.4 kcal/mol | unfolding enthalpy (van 't Hoff) [10]: 56.3 kcal/mol | Tm [11]: 87.8 °C | unfolding enthalpy (calorimetric) [11]: 62.4 kcal/mol
